Assays:
human CD94 (human) [1] = biological target: human CD94 (human) (UniProt Q13241); assay: competition assay, flow cytometry on CD3-CD56+ NK cells of healthy donor PBMCs; labeled HP-3B1 titrated, concurrently Human IgG1 control (or 18H3 at 1.3 µg/ml)
human CD94 (human) [2] = biological target: human CD94 (human) (UniProt Q13241); assay: competition assay, flow cytometry on NK cells of healthy donor PBMCs; labeled HP-3B1 titrated, concurrently Human IgG1 control
human CD94 (human) [3] = biological target: human CD94 (human) (UniProt Q13241); assay: HLA-E tetramer blocking on healthy-donor PBMC NK cells, flow cytometry; competitor HLA-E tetramer
human CD94 (human) [4] = biological target: human CD94 (human) (UniProt Q13241); assay: competition assay, flow cytometry on CD3-CD56+ NK cells of healthy donor PBMCs; labeled HP-3B1 titrated in the presence of 1E4 at 11 µg/ml
human CD94 (human) [5] = biological target: human CD94 (human) (UniProt Q13241); assay: table column 'HLA-E blocking'; flow cytometry on NK cells of healthy donor PBMCs, antibody at saturating concentration, blocked ligand PE labeled HLA-E tetramer; percent blocking = 100-((percent HLA-E positive with antibody)/(percent HLA-E positive with isotype)*100)
human CD94 (human) [6] = biological target: human CD94 (human) (UniProt Q13241); assay: table column 'Affinity on human NK cells'; flow cytometry titration on human primary NK cells (the filing gives these affinities as EC50 of the titration curve)

human CD94 (human), sequence (Q13241 whole entry): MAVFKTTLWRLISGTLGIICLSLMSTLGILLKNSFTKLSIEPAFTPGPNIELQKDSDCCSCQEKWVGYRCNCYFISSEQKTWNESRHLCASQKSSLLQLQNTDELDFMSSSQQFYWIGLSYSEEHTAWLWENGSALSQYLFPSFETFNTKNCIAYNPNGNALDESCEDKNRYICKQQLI

| EC50 (read off the curve) (human CD94 (human) [1]) [nM] | EC50 (read off the curve) (human CD94 (human) [2]) [nM] | percent HLA-E blocking (human CD94 (human) [3]) [%] | EC50 (read off the curve) (human CD94 (human) [4]) [nM] | HLA-E blocking (human CD94 (human) [5]) [%] | Affinity on human NK cells (human CD94 (human) [6]) [nM] | Substance |
| --- | --- | --- | --- | --- | --- | --- |
| 3 | 3 | > 40 | 2 | 99.8 | 3 | anti-CD94 antibody clone HP-3B1 |
|  |  | > 40 |  | 99 | 0.15 | anti-CD94 antibody clone DX22 |
